From article PMC10917059, “RhoU forms homo-oligomers to regulate cellular responses” (Journal of Cell Science, 2024)

Biological target: the molecule itself
Assay: cross-linking; lysates of transfected COS7 cells in 20 mM HEPES pH 7.2, 1% Triton X-100, incubated with DSS (0.25 mM in the methods; increasing concentrations in the results) or DMSO for 30 min at 4°C; anti-Myc blot

B1: Myc–RhoU (natural protein)
chain: not shown
notes: vector a gift from Pontus Aspenström; also called pRK5-myc-RhoU; full-length RhoU; source: COS7, transfected, in lysate; not shown: Myc, N-terminal, kept
  stoichiometry N: 2
